# Source: patent US20200040103A1
# Columns and labels:
# [1] = target: recombinant human KLK5 (human) (UniProt Q9Y337); experiment: array SPR imaging (IBIS MX96), antibody amine-coupled, human KLK5 injected 0-300 nM, 25 C
# [2] = target: recombinant human KLK5 (human) (UniProt Q9Y337); experiment: cell-based or functional assay
# [3] = target: recombinant human KLK5 (human), Q9Y337; experiment: cell-based or functional assay
# [4] = target: recombinant human KLK5 (human) (UniProt Q9Y337); experiment: pro-KLK7 coupled assay, 5 nM KLK5
# [5] = target: recombinant human KLK5 (human) (UniProt Q9Y337); experiment: pro-KLK1 LC/MS assay, 0.5 nM KLK5, 300 nM pro-KLK1; box column 2 of 3; no unit printed, nM per text
# [6] = target: recombinant human KLK5 (human) (UniProt Q9Y337); experiment: pro-KLK1 LC/MS assay, 0.5 nM KLK5, 300 nM pro-KLK1; box column 1 of 3; no unit printed, nM per text
# [7] = target: recombinant human KLK5 (human) (UniProt Q9Y337); experiment: KLK5 direct activity assay, 5 nM KLK5, Boc-VPR-AMC
# [8] = target: recombinant human KLK5 (human) (UniProt Q9Y337); experiment: pro-KLK1 coupled assay, 0.5 nM KLK5
# [9] = target: recombinant human KLK5 (human) (UniProt Q9Y337); experiment: Kiapp assay curve, 0.125 nM KLK5, Z-VPR-pNA
# [10] = target: recombinant human KLK5 (human) (UniProt Q9Y337); experiment: Kiapp assay curve, 0.063 nM KLK5, Z-VPR-pNA
# [11] = target: recombinant human KLK5 (human) (UniProt Q9Y337); experiment: pro-KLK7 coupled assay, 5 nM KLK5, 125 nM pro-KLK7, suc-LLVY-AMC
# [12] = target: recombinant human KLK5 (human) (UniProt Q9Y337); experiment: pro-KLK1 coupled assay, 0.5 nM KLK5, 31.25 nM pro-KLK1, PFR-AMC
# [13] = target: recombinant human KLK5 (human) (UniProt Q9Y337); experiment: Kiapp assay curve, 0.500 nM KLK5, Z-VPR-pNA
# [14] = target: recombinant human KLK5 (human) (UniProt Q9Y337); experiment: direct activity assay, 5 nM KLK5, Boc-VPR-AMC
# [15] = target: recombinant human KLK5 (human) (UniProt Q9Y337); experiment: pro-KLK7 LC/MS assay, 5 nM KLK5
# [16] = target: recombinant human KLK5 (human) (UniProt Q9Y337); experiment: pro-KLK1 LC/MS assay, 0.5 nM KLK5, 300 nM pro-KLK1; box column 3 of 3; no unit printed, nM per text
# [17] = target: recombinant human KLK5 (human) (UniProt Q9Y337); experiment: Kiapp as the y-intercept of the line of IC50 (nM) versus KLK5 (nM), Z-VPR-pNA
# [18] = target: recombinant human KLK5 (human) (UniProt Q9Y337); experiment: Kiapp assay curve, 0.250 nM KLK5, Z-VPR-pNA
# [19] = target: recombinant human KLK5 (human) (UniProt Q9Y337); experiment: pro-KLK1 LC/MS assay, 0.5 nM KLK5
# [20] = target: recombinant human KLK5 (human) (UniProt Q9Y337); experiment: pro-KLK7 LC/MS assay, 5 nM KLK5, 15 nM pro-KLK7, nM
# [21] = target: recombinant human KLK5 (human) (UniProt Q9Y337); experiment: Kiapp, KLK5 0.5-0.0625 nM, Z-VPR-pNA
# [22] = target: recombinant human KLK5 (human) (UniProt Q9Y337); experiment: SPR BIAcore T200, antibody captured by anti-human Fc, human KLK5 as analyte, 37 C
# Chain of recombinant human KLK5 (human) (Q9Y337 67-293): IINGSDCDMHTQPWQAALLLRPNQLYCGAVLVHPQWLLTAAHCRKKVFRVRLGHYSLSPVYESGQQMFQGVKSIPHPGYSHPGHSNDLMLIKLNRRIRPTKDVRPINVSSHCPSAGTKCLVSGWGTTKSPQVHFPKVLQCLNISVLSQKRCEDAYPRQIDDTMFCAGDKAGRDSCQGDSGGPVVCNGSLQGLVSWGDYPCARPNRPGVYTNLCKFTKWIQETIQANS
# Chain of recombinant human KLK5 (human), Q9Y337 (Q9Y337 67-293): as above
Binder,koff [1],inhibition of human KLK5 (screening) [2],IC50 [4],IC50 [5],IC50 [6],IC50 (read off the curve) [7],IC50 [8],IC50 (read off the curve) [9],IC50 (read off the curve) [10],IC50 (read off the curve) [11],IC50 (read off the curve) [12],IC50 (read off the curve) [13],IC50 [14],IC50 [15],IC50 [16],Ki [17],IC50 (read off the curve) [18],IC50 [19],IC50 [20],Ki [21],further results
"8E11 (antibody, V domains shown) VH: QEQLEESGGDLVKPEGSLTLTCTASGFSFSSSYWICWVRQAPGKGLEWIACVYGLDVNIYYASWTKGRFTISKTSSTTVTLQMTSLTAADTATYFCARGGGSADFGFDLWGPGTLVTVSS VL: DVVMTQTASPVSAAVGGTVTIKCQASENIYSLLAWYQQKPGQPPKVLIYDASDLASGVPSRFKGSGSGTQFTLTISDLECADAATYYCQATAYGSSGNAFGGGTEVVVK",0.000202 s⁻¹,< 90%,–,–,–,–,–,–,–,–,–,–,–,–,–,–,–,–,–,–,–
"12B3 (antibody, V domains shown) VH: QSLEESGGGLVKPGGTLTLTCKASGIDFNGGGIYWVRQAPGKGLEWIASIYPDHGSVDYANWVNGRFTISLDNAQNTVFLQLTSLTVADTATYFCARESGGSYYDLWGPGTLVTVSS VL: AYDMTQTPASVEVAVGGTVTIKCQASQSISTYLAWYQQKPGQRPNLLIYKTSTLASGVPSRFRGSGSGTQFTLTISGVECADAATYYCQQGYSGSSVENTFGGGTEVVVK",–,–,–,–,–,–,–,–,–,–,–,–,–,–,–,–,–,–,–,–,inhibition of human KLK5 (screening) [3]: < 50%
"1D10 (antibody, V domains shown) VH: QSLEESGGGLVKPGGTLTLTCTASGFDFNGGGIYWVRQAPGKGLEWIAYIYPDHGSADYATWVNGRFTISLDNAQNTVFLQMTSLTVADTATYFCARETGGSWYDLWGPGTLVTVSS VL: AYDMTQTPVSVEAAVGGTVTIKCQASQSISSYLAWYQQKPGQPPKLLIYKASTLASGVSSRFKGSGSGTEFTLTISDLECADAATYYCQQGYSGSNVENTFGGGTEVVVK",–,–,–,–,–,–,–,–,–,–,–,–,–,–,–,–,–,–,–,–,inhibition of human KLK5 (screening) [3]: < 50%
"8B7 (antibody, V domains shown) VH: QSVKESEGGLFKPTDNLTLTCTVSGFSLSNYGVTWVRQAPGNGLEYIGFIGSSGSAYYASWAKSRSTITRNTNLNTVTLKMTSLTAADTATYFCARDDVGGGKSLDIWGPGTLVTVSS VL: NIVMTQTPASVEVAVGGTVTIKCQASQSIGSYLSWYQQKPGQPPKLLIYDASNLASGVPSRFKGSGSGTQFTLSISDLECADAATYYCHQDYTSNNVDNTFGGGTEVVIK",0.000547 s⁻¹,–,0.92 nM,0.132 nM,0.0473 nM,1 to 2 nM,0.125 nM,0.2 nM,0.2 nM,1 nM,0.1 nM,0.2 nM,1.1 nM,1.29 nM,0.106 nM,0.264 nM,0.2 nM,0.09 nM,1.29 nM,0.32 nM,–
"10C8 (antibody, V domains shown) VH: QSVKESEGGLFKPTDNLTLTCTVSGFSLSSYGVSWVRQAPGNGLEYIGFIGSGGFAYYASWAKSRSTITRNTNLNTVTLKMTSLTAADTATYFCARDDVGGGRSLDIWGPGTVVTVSS VL: NIVMTQTPASVEVAMGGTVIIKCQASQSISTYLSWYQQKPGQPPKLLIYSASTLASGVSSRFEGSGSGTQFTLTISGVQCADAATYYCHQDYTSNNVDNTFGGGTEVVVK",6.16e-05 s⁻¹,–,1.16 nM,0.225 nM,0.0587 nM,0.9 nM,0.151 nM,0.2 nM,0.2 nM,1 nM,0.1 to 0.2 nM,0.2 nM,0.89 nM,1.8 nM,0.149 nM,0.277 nM,0.2 nM,0.14 nM,1.8 nM,0.265 nM,–
"9H5 (antibody, V domains shown) VH: QSVKESEGGLFKPTDNLTLTCTVSGFSLSSYGVSWVRQAPGNGLEYIGFIGSGGFAYYASWAKSRSTITRNTNLNTVTLKMTSLTAADTATYFCARDDVGGGKSLDIWGPGTVVTVSV VL: NIVMTQTPASVEAAVGGTVTINCQASQSISSYLSWYQQKSGQRPKLLIFSASTLASGVPSRFTGSGSGTQFTLTISDLQCADAATYYCHQDYTSSNVDNTFGGGTEVVVK",0.000367 s⁻¹,–,0.87 nM,0.343 nM,0.138 nM,0.8 nM,0.139 nM,0.2 nM,0.2 nM,0.8 nM,0.1 to 0.2 nM,0.3 nM,1.08 nM,1.68 nM,0.102 nM,0.402 nM,0.2 nM,0.19 nM,1.68 nM,0.425 nM,Kd [22]: 0.193 nM; koff [22]: 0.000137 s⁻¹; kon [22]: 705000 M⁻¹ s⁻¹
"9F2 (antibody, V domains shown) VH: QSVKESEGGLFKPTDNLTLTCTVSGFSLSSYGVSWVRQAPGNGLEYIGFIGSGGSPYYASWAKSRSTITRNTNLNTVTLKMTSLTAADTATYFCARDDVGGGKSLDIWGPGTLVTVSS VL: NIVMTQTPASVEVAVGGTVIIKCQASQSISNYLSWYHQKSGQRPRLLIYSASTLASGVPSRFKGSGSGTQFTLTISDLECADAATYYCHQDYTSNSVDNTFGGGTEVVVK",0.000339 s⁻¹,–,0.93 nM,0.137 nM,0.108 nM,1 to 2 nM,0.137 nM,0.2 nM,0.2 nM,0.9 nM,0.1 to 0.2 nM,0.3 nM,1.01 nM,1.26 nM,0.18 nM,0.377 nM,0.2 nM,0.14 nM,1.26 nM,0.43 nM,–
"10H3 (antibody, V domains shown) VH: QSVKESEGGLIKPTDTLTLTCTVSGFSLSTFAINWVRQAPGNGLEWIGAIGRGGSAYYASWAKSRSTITKNTNLNTVTLKMTRPTAADTATYFCARENAGSGWGELDIWGPGTLVTVSS VL: AYEMTQTPASVEVAVGGTVTINCQASESISSDLAWYQQKPGQRPKLLIYAASTLASGVPSRFKGSGSGTEFTLSISGVQCADAATYYCQQGYTWNNVDNVFGGGTEVVVK",0.000589 s⁻¹,–,1.17 nM,0.116 nM,0.00485 nM,1 nM,0.122 nM,0.3 nM,0.2 nM,1 nM,0.1 nM,0.4 nM,1.09 nM,0.97 nM,0.13 nM,0.393 nM,0.3 nM,0.08 nM,0.968 nM,0.51 nM,–

# Further lines, with some results ahead:
koff [1],inhibition of human KLK5 (screening) [2],IC50 [4],IC50 [5],IC50 [6],IC50 (read off the curve) [7],IC50 [8],IC50 (read off the curve) [9],IC50 (read off the curve) [10],IC50 (read off the curve) [11],IC50 (read off the curve) [12],IC50 (read off the curve) [13],IC50 [14],IC50 [15],IC50 [16],Ki [17],IC50 (read off the curve) [18],IC50 [19],IC50 [20],Ki [21],Binder,further results
0.000414 s⁻¹,< 90%,–,–,–,–,–,–,–,–,–,–,–,–,–,–,–,–,–,–,"14E12 (antibody, V domains shown) VH: EVQLVESGGGLVRPGRSLRLSCAASGFTFSDYYMAWVRQAPTKGLEWVASISYDGDTTYYRDSVKGRFTISRDNARSSLYLQMDSLRSDDTANYFCTTDGTIPAGSWFAYWGQGTLVTVSS VL: DIQMTQSPASLSASLGETVTIECLASKNIYRNLAWYQQKPGKSPQFLISDASRLQDGVPSRFTGSDSGSQYSLKINSLQSEDVATYFCQQYHDYPYTFGAGTKLELK",–
0.000376 s⁻¹,< 90%,–,–,–,–,–,–,–,–,–,–,–,–,–,–,–,–,–,–,"14C8 (antibody, V domains shown) VH: EVQLVESGGGLVQPGRSLKLSCTASGFTFSDYNMAWVRQAPKGGLEWVTTISYDAGRTYYRDSVKGRFTISRDNAKRTLSLQMDSLRSEDTATYYCATGIFNYGTDYFDYWGQGVMVTVSS VL: DIQMTQSPASLSASLGETVTIQCRASEDIYSGLAWYQQKPGKSPQLLIYGATTLHDGVPSRFSGSGSGTQYSLKISSMHSEDEGIYFCHQGLSFPYTFGAGTKLELK",–
